The source of these data is paper PMC4077652, “An Unstable Th Epitope of P. falciparum Fosters Central Memory T Cells and Anti-CS Antibody Responses” (PLoS ONE, 2014).

The target in experiment [1] is soluble recombinant HLA-DR4 (HLA-DRβ1*04:01) (human). The experiment is described as follows: ELISA. (ELISA stands for enzyme-linked immunosorbent assay.)
The target is the same in experiment [2]. The experiment is described as follows: ELISA. The source holds these as a separate data set.
The target is the same in experiment [3].
Experiment [4] shares this target. The experiment is described as follows: dissociation kinetics (LB3.1 capture, europium-streptavidin time-resolved fluorescence).
Experiment [5] has the same target. As to the kind of experiment: ELISA; apparent Kd; direct binding of biotin-labeled peptide to DR4 as in the DR-ELISA (72 h), binding reactions set up with 1 µM HLA-DM.

pIC50, pKd: −log10 of the molar value. Where “and” joins values, the source holds several entries; their conditions need not be identical. Equal entries are not always repeated. Where two headings read alike, the source gives them in different places.

Broadly, the pIC50 is the IC50 on a negative log10 scale, so that one unit is a factor of ten. HA 306-318 peptide, unlabeled: the negative-log IC50 (pIC50) in experiment [1] is 6.51; in experiment [2] it was 3.76.

QNT-5 332-345 peptide, unlabeled: the negative-log IC50 (pIC50) in experiment [1] is 5.77.

With “QNT-Y peptide (QNT-5 analogue L335Y), unlabeled”, the pIC50 in experiment [1] was 6.89.

As usually defined, the half-life is how long it takes for the measured level to halve. Consider biotin-labeled HA 306-318 peptide, for which the half-life in experiment [3] worked out at 620 h.

Broadly, the pKd is the Kd on a negative log10 scale, so that one unit is a factor of ten. Consider “biotin-labeled T* 326-345 peptide (NF-54 variant)”, for which the negative logarithm of the Kd (pKd) in experiment [1] was 6.61 and 6.91.

As to biotin-labeled T*-1 327-338 peptide, the pKd in experiment [1] was 7.37. In addition, in experiment [4], the half-life is 63.9 h and the half-life with HLA-DM was determined as 4.9 h. Moreover, the pKd in experiment [5] is 7.29.
